Among the data in article PMC2613574 are log(B/E ratio) and Kd values, retold here.

Assay [1] addresses FNfn10 wild-type N fragment displayed on the yeast surface (Aga2p fusion, FLAG tag) (human). The assay is described as follows: flow cytometry on cells. (Flow cytometry measures light scatter and fluorescence of single cells or particles in a stream.)
Assay [2] has as its target FNfn10 ND7N fragment displayed on the yeast surface (Aga2p fusion, FLAG tag) (human). The assay is described as follows: flow cytometry on cells.

As to “FNfn10 C fragment, wild type, co-secreted in yeast (V5 tag) (domain or fragment)”, in assay [1], the log(B/E ratio) turned out to be 1.3. A word on the Kd: it is the equilibrium constant for the complex coming apart. The substance “ubiquitin fusion of the FNfn10 C fragment with the V5 tag (domain or fragment)” yielded a Kd in assay [2] of 25.3 nM. This lies in the double-digit nanomolar range.
